Results taken from patent US20260028421A1 (JIANGSU HENGRUI PHARMACEUTICALS, published 2026).
Residue numbers refer to the chain shown, from its start. Read-outs that look alike come from different tables or passages of the source.

B1: P1-D2 CHI (antibody, human IgG1, kappa, V domains shown)
VH: EFQLQQSGPELVKPGASVKISCKASGYSFTDHNMNWVKQSNGKSLEWIGVINPKYGTISNNQKFKGKATLTVDQSSSTAYMQLNSLTAEDSAVYYCARDDYPNYFDYWGQGTTLTVSS
VL: QIVLTQSPAIMSASPGEKVTISCSANSSVNYIYWYQQKPGSSPKPWIYRTSNLASGVPARFSGSGSGTSYSLTISSMEAEDAATYYCQQYHSFPPTFGGGTKLEIKR
notes: chimeric
B2: P1-D3 CHI (antibody, human IgG1, kappa, V domains shown)
VH: QIQLIQSGPELKKPGETVKISCKASGYTFTTYGMSWVKQAPGKGLKWMGWINTYSGVPTYADDFKGRFAFSLETSANTAYLQINNLKNEDTATYFCARRGYSNLYYYALDYWGQGASVTVSS
VL: QIVLTQSPAIMSASPGEKVTMTCSASSSVNYMHWYQQKSGTSPKRWIYDTSKLASGVPTRFSGSGSGTSYSLTISSMEAEDAATYFCQQWSSNPSTFGGGTKLEIKR
notes: chimeric
B3: P1-F10 CHI (antibody, human IgG1, kappa, V domains shown)
VH: EVQLVESGGGLVKPGGSLKLSCAASGFAFSDYGMHWVRQAPEKGLEWVAHISSGSSTIYYADTVKGRFTISRDNVKNTLFLQMTSLRSEDTAMYYCARSRNYYGSRVFDYWGQGTPLTVSS
VL: QIVLTQSPALMSVSPGEKVTMTCSASSSVNYMYWYQQKPRSSPKPWIYLTSNLASGVPARFSGSGSGTSYSLTISSMEAEDAATYYCQQWNSNPPTFGSGTKLEIKR
notes: chimeric
B4: P1-D9 CHI (antibody, human IgG1, kappa, V domains shown)
VH: B3 VH with A28S, V48I, V75A, V107I, P116T
VL: B3 VL with L10R, V13A, N30S, N91S
notes: chimeric
B5: P3-D9 CHI (antibody, human IgG1, kappa, V domains shown)
VH: B3 VH with A61G, V75A, A97T, P116T
VL: B3 VL with N30S, N52S, S75N, S76N, M77V, N91S, L103V
notes: chimeric
B6: 1608 (antibody, human IgG1, kappa, V domains shown)
VH: EVQLVESGGGLVQPGGSLRLSCAASGFTFSSYWMHWVRQAPGKGLEWIGEIKPSNELTNVHEKFKDRFTISVDKAKNSAYLQMNSLRAEDTAVYYCTRTITTTEGYWFFDVWGQGTLVTVSS
VL: DIQLTQSPSSLSASVGDRVTITCRASESVDYYGSSLLQWYQQKPGKAPKLLIYAASKLASGVPSRFSGSGSGTDFTLTISSLQPEDFATYYCQQTRKAYTFGQGTKLEIKR
B7: 81 L3H1 (antibody, human IgG1, kappa, V domains shown)
VH: EVQLVQSGAEVKKPGASVKVSCKASGYTFTDHNMNWVKQAPGQRLEWMGVMNPKFGTINYNQKFKDKATITRDTSASTAYMELSSLRSEDTAVYYCARDNYPNYFDYWGQGTTVTVSS
VL: DIQLTQSPSFLSASPGDRVTITCSASSSVNYMYWYQQKPGSSPKSWIYRTSNLASGVPSRFSGSGSGTEYTLTISSLQPEDFATYYCQQYHDYPPTFGGGTKVEIKR
notes: humanized, human IgG1/kappa
B8: P3-B4 CHI (antibody, human IgG1, kappa, V domains shown)
VH: B2 VH with I5V, T17I, N77S, G100A, Y101G, N103S, L109M, A116T
VL: B2 VL with N30S, H33L, T59A, F86Y, S95P
notes: chimeric
B9: P3-F6 CHI (antibody, human IgG1, kappa, V domains shown)
VH: EVQLQQSGPELVKPGASVKISCKASGYTFTDYYMNWVKQSHGKSLEWIGDINPNNGGTSYNQKFKGKATLTVDKSSSTAYMELRSLTSEDSAVYYCARKTWLPYASVYWGQGTSVTVSS
VL: DVVMTQTPLSLPVSLGDQASISCRSSQSLVHSNGNTYLHWYLQKPGQSPKLLIYKVSNRFSGVPDRFSGSGSGTDFTLKISRVEAEDLGVYFCSQSTHVPPYTFGGGTKLEIKR
notes: chimeric
B10: 146 L1H1 (antibody, human IgG1, kappa, V domains shown)
VH: EFQLVQSGAEVKKPGASVKVSCKASGYSFTDYNMNWVRQAPGQRLEWMGLINPKYGTTNYNQKFKGRVTLTVDQSSSTAYMELSSLRSEDTAVYYCARDNYPAWFAYWGQGTTVTVSS
VL: EIVLTQSPATLSLSPGERATLSCSASSSLNYMYWYQQKPGSSPRPWIYRTSQLASGVPARFSGSGSGTDYTLTISSLEPEDFAVYYCQQYHSYPPTFGGGTKVEIKR
notes: humanized, human IgG1/kappa
B11: P3-C7 L7H1 (antibody, human IgG1, kappa, V domains shown)
VH: EVQLVQSGAEVKKPGASVKVSCKASGYTFTDHYIHWVRQAPGQGLEWMGVINPYNDGATYNQKFKGRVTMTVDKSTSTVYMELSSLRSEDTAVYYCARPPRAYGNYAGYWGQGTTVTVSS
VL: DVVMTQTPLSLPVTPGEPASISCRSSQSLVHSNQNTYLHWYLQKPGQSPQLLIYKVSNRFSGVPDRFSGSGSRTDFTLKISRVEAEDVGVYYCSQSTHVPYTFGGGTKVEIKR
notes: humanized, human IgG1/kappa
B12: HJ-10 (bispecific antibody)
chain 1: not shown
chain 2: DIQMTQSPSSVSASVGDRVTITCRASQDIANYLSWYQQKPGKSPKLLIYGTSNLEVGVPSRFSGSRSGTDFTLTISSLQPEDFATYYCLQDKEFPRTFGGGTKVEIKRTVASSGAPRFLTRPKASVVSVGKDATLSCQIVGNPFPQVSWEKDKQPVTAGVRFRLAQDGDLYRLKILDLQLSDSGQYVCRARNAHGEAFACLGLQVDAEA
chain 3: EVQLVQSGAEVKKPGSSVKVSCKASGYTFSNYLIEWVRQAPGQGLEWIGVIDPGVGDTNYNENFKGRATLTADKSTSTAYIELSSLRSEDTAVYYCAREDNTGTAFDYWGQGTTVTVSSASTKGPSVFPLAPSSKSTSGGTAALGCLVKDYFPEPVTVSWNSGALTSGVHTFPAVLQSSGLYSLSSVVTVPSSSLGTQTYICNVNHKPSNTKVDKKVEPKSCDKTHTCPPCPAPEAAGGPSVFLFPPKPKDTLMISRTPEVTCVVVDVSHEDPEVKFNWYVDGVEVHNAKTKPREEQYNSTYRVVSVLTVLHQDWLNGKEYKCKVSNKALPAPIEKTISKAKGQPREPQVCTLPPSREEMTKNQVSLSCAVKGFYPSDIAVEWESNGQPENNYKTTPPVLDSDGSFFLVSKLTVDKSRWQQGNVFSCSVMHEALHNHYTQKSLSLSPGK
chain 4: SIVMTQTPLSLSVTPGQPASISCKASQSVSSDVTWYLQKPGQSPQLLIYYVSEHYTGVPDRFSGSGYGTDFTLKISRVEAEDVGVYYCQQHHRFPLTFGQGTKLEIKRTVAAPSVFIFPPSDEQLKSGTASVVCLLNNFYPREAKVQWKVDNALQSGNSQESVTEQDSKDSTYSLSSTLTLSKADYEKHKVYACEVTHQGLSSPVTKSFNRGEC
B13: HJ-11 (bispecific antibody)
chain 1: not shown
chain 2: B12 chain 2 with A115C
chain 3: B12 chain 3
chain 4: B12 chain 4

What was measured:
hGUCY2C ECD-His [1] = biological target: T1, hGUCY2C ECD-His (human, UniProt P25092 24-430); test: SPR Biacore, antibody captured
T1 construct: also called human GUCY2C protein
Text: To test the affinity of the GUCY2C monoclonal antibodies of the present disclosure for GUCY2C, in this test example, the instruments Biacore 8K and Biacore T200 were used to detect the ability of the antibodies to bind to hGUCY2C-ECD-His (SEQ ID NO: 3). The specific method is as follows: The antibody was affinity-captured using a Protein A biosensor chip conjugated with an anti-human antibody, then a solution containing GUCY2C Protein flowed on the surface of the chip, and reaction signals were detected in real time with an instrument to obtain association and dissociation curves. After dissociation was completed for each cycle, the biosensor chip was washed with 10 mM glycine-hydrochloric acid (pH 1.5) for regeneration. Data fitting was performed using a 1:1 model.

[2] = biological target: T2, Human GUCY2C protein on cells (HCT116/hGUCY2C, HT-55, T84, LS1034, LS174T) (human, UniProt P25092 24-1073); test: flow cytometry on HCT116/hGUCY2C cells, PE anti-human IgG Fc secondary antibody
T2 construct: also called GUCY2C on the cell surface

[3] = biological target: T2, Human GUCY2C protein on cells …; test: as above; remark: listed apart in the source
hGUCY2C ECD-His [4] = biological target: T1, hGUCY2C ECD-His; test: competition ELISA, row antibody coated; competitor 81 L3H1-biotinylated
hGUCY2C ECD-His [5] = biological target: T1, hGUCY2C ECD-His; test: competition ELISA, row antibody coated; competitor 146 L1H1-biotinylated
[6] = biological target: T2, Human GUCY2C protein on cells …; test: flow cytometry on HCT116/hGUCY2C cells, PE anti-human IgG Fc secondary antibody; remark: listed apart in the source
hGUCY2C ECD-His [7] = biological target: T1, hGUCY2C ECD-His; test: competition ELISA, row antibody coated; competitor P3-C7 L7H1-biotinylated
hGUCY2C ECD-His [8] = biological target: T1, hGUCY2C ECD-His; test: competition ELISA, row antibody coated; competitor 1608-biotinylated
hIL5 = hIL5 (human, UniProt P05113 20-134); test: ELISA
hTSLP = hTSLP (human, UniProt Q969D9 29-159); test: ELISA

Binder | Kd (hGUCY2C ECD-His [1]) | koff (hGUCY2C ECD-His [1]) | kon (hGUCY2C ECD-His [1]) | EC50 (read off the curve) [2] | EC50 (read off the curve) [3] | relative competition coefficient (hGUCY2C ECD-His [4]) | relative competition coefficient (hGUCY2C ECD-His [5]) | EC50 (read off the curve) [6] | relative competition coefficient (hGUCY2C ECD-His [7]) | relative competition coefficient (hGUCY2C ECD-His [8]) | EC50 (hIL5) | EC50 (hTSLP)
B1 | 0.92 nM | 0.00018 s⁻¹ | 195000 M⁻¹ s⁻¹ | ~0.7 nM |  |  |  |  |  |  |  | 
B2 | 5.06 nM | 0.000233 s⁻¹ | 46000 M⁻¹ s⁻¹ | ~1 nM |  |  |  |  |  |  |  | 
B3 | 8.64 nM | 0.000279 s⁻¹ | 32300 M⁻¹ s⁻¹ | ~0.6 nM |  |  |  |  |  |  |  | 
B4 | 19.6 nM | 0.000399 s⁻¹ | 20300 M⁻¹ s⁻¹ | ~0.7 nM |  |  |  |  |  |  |  | 
B5 | 26.5 nM | 0.000504 s⁻¹ | 19000 M⁻¹ s⁻¹ |  | ~1 nM |  |  |  |  |  |  | 
B6 |  |  |  | ~0.3 nM | ~0.3 nM | 6 | 12 | ~0.3 nM | 3 | 100 |  | 
B7 | 0.29 nM | 5.19e-05 s⁻¹ | 181000 M⁻¹ s⁻¹ |  |  | 100 | 81 | ~1 nM | 3 | 11 |  | 
B8 | 8.28 nM | 0.000214 s⁻¹ | 25800 M⁻¹ s⁻¹ |  | ~2 nM |  |  |  |  |  |  | 
B9 | 37 nM | 0.000245 s⁻¹ | 6610 M⁻¹ s⁻¹ |  | ~2 nM |  |  |  |  |  |  | 
B10 | 0.92 nM | 0.000117 s⁻¹ | 127000 M⁻¹ s⁻¹ |  |  | 99 | 100 | ~2 nM | 4 | 12 |  | 
B11 | 7.77 nM | 0.000186 s⁻¹ | 23900 M⁻¹ s⁻¹ |  |  | 6 | 13 | ~2 nM | 100 | 10 |  | 
B12 |  |  |  |  |  |  |  |  |  |  | 20.8 nM | 3.17 nM
B13 |  |  |  |  |  |  |  |  |  |  | 9.46 nM | 3 nM
